In paper PMC11246345:

How the values were obtained:
VEGF-A 165 = assay: ELISA
VEGF-A 189 = assay: ELISA

Substance: US-aflibercept (Fc fusion)
- %relative binding activity (against a reference standard) (VEGF-A 165): 97%
- %relative binding activity (against a reference standard) (VEGF-A 189): 97%
